Positions count from the first letter of the chain named.

T1: GDF15 (Homo sapiens (Human), UniProt Q99988 30-308)
T1 sequence: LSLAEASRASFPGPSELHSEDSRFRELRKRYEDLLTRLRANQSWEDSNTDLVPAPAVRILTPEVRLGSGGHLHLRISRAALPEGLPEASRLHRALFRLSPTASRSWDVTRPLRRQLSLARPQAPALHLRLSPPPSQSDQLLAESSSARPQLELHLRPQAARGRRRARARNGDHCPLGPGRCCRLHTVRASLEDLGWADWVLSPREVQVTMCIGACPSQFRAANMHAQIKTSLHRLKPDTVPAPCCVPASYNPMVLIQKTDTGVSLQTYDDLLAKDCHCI

T2: Cyno GDF15 Fc (cyno, UniProt G7PWZ3 193-308)
T2 construct: also called cyno GDF15-Fc fusion
T2 sequence: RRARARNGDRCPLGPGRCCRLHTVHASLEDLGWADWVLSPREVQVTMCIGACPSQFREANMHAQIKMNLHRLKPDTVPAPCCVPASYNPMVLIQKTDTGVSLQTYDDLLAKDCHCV

T3: Mouse GDF15 Fc (mouse, UniProt Q9Z0J7 189-303, limits assumed)
T3 construct: also called mouse GDF15Fc fusion
T3 sequence (looked up): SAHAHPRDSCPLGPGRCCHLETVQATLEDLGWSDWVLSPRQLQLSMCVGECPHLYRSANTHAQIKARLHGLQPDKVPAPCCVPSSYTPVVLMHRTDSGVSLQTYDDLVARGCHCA

T4: GDNF (UniProt P39905 78-211)
T4 sequence (looked up): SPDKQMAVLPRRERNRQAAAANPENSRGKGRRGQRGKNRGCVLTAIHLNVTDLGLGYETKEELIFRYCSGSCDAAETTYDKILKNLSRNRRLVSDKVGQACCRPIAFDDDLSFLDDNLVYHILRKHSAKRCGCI

T5: GDF10 (UniProt P55107 369-478)
T5 sequence (looked up): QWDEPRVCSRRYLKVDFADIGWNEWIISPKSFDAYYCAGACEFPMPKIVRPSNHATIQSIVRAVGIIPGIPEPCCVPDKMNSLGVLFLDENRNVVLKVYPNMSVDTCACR

T6: Human Activin A Fc (human, UniProt P08476 311-426)
T6 sequence (looked up): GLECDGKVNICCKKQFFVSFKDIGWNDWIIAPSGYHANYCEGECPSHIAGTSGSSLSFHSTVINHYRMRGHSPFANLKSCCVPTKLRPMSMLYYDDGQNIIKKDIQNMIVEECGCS

T7: Human Activin B (human, UniProt P09529 293-407)
T7 construct: Also used for the Activin B ligand of the ActRIIB/SMAD reporter assay, where the species is not restated
T7 sequence (looked up): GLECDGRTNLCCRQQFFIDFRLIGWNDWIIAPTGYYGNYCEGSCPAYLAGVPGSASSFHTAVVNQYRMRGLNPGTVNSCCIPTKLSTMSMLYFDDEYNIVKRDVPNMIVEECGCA

T8: Human BMP9 (human, UniProt Q9UK05 320-429)
T8 sequence (looked up): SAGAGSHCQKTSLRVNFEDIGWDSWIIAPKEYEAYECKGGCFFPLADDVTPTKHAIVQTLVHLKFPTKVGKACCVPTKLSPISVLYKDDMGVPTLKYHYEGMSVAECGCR

T9: Human BMP10 (human, UniProt O95393 317-424)
T9 sequence (looked up): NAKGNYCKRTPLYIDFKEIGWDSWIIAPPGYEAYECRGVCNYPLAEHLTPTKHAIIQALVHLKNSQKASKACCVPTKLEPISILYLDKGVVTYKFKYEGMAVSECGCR

B1: Clone H IgG (antibody, V domains shown)
VH: QVQLVQSGAEVKKPGSSVKVSCKASGGTFSSYYISWVRQAPGQGLEWMGGIAPISGTASYAQKFQGRVTITADESTSTAYMELSSLRSEDTAVYYCARGLAYDGYFDLWGRGTLVTVSS
VL: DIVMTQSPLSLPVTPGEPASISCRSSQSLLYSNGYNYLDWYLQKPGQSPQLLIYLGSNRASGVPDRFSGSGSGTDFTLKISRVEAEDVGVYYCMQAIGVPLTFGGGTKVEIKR
notes: IgG format
B2: Clone H Fab (Fab, V domains shown)
VH: B1 VH
VL: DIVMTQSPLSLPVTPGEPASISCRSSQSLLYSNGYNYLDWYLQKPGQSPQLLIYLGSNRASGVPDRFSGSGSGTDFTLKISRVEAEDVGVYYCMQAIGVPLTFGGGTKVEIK
notes: Fab format
B3: Clone M Fab (Fab, V domains shown)
VH: QVQLVQSGAEVKKPGASVKVSCKASGYTFDSYGINWVRQAPGQGLEWMGWISAYSGDTAYAQELQGRVTMTTDTSTSTAYMELRSLRSDDTAVYYCVRDTQYGGSPYWGQGTLVTVSS
VL: EIVMTQSPATLSVSPGERATLSCRASQSVSSNLAWYQQKPGQAPRLLIYGASTRATGIPARFSGSGSGTEFTLTISSLQSEDFAVYYCQQYNNWPITFGGGTKVEIK
notes: Fab format
B4: Clone J IgG (antibody, V domains shown)
VH: QVQLVQSGAEVKKPGASVKVSCKASGYTFTSYGINWVRQAPGQGLEWMGWIDAYSGSTNYAQKLQGRVTMTTDTSTSTAYMELRSLRSDDTAVYYCARGPGQYADVDVWGQGTMVTVSS
VL: DIQMTQSPSSVSASVGDRVTITCRASQGISSWLAWYQQKPGKAPKLLIYAASSLQSGVPSRFSGSGSGTDFTLTISSLQPEDFATYYCQQANSFPITFGGGTKVEIKR
notes: IgG format
B5: Clone K IgG (antibody, V domains shown)
VH: QVQLVQSGAEVKKPGASVKVSCKASGYTFTNEGISWVRQAPGQGLEWMGWISAYTADTFYAQKLQGRVTMTTDTSTSTAYMELRSLRSDDTAVYYCARTRHDTSGLRFDYWGQGTLVTVSS
VL: B4 VL with S30D, A91V, N92H
notes: IgG format
B6: Clone P IgG (antibody, V domains shown)
VH: QVQLVQSGAEVKKPGATVKVSCKASGYTFDSYGIHWVRQAPGQGLEWMGWITAYSGDTVYAQKLQGRVTMTTDTSTSTAYMELRSLRSDDTAVYYCARESGQTSSALGPWGQGTLVTVSS
VL: B4 VL with S31R, A91G, N92A, I96L
notes: IgG format
B7: Clone K Fab (Fab, V domains shown)
VH: B5 VH
VL: DIQMTQSPSSVSASVGDRVTITCRASQGIDSWLAWYQQKPGKAPKLLIYAASSLQSGVPSRFSGSGSGTDFTLTISSLQPEDFATYYCQQVHSFPITFGGGTKVEIK
notes: Fab format
B8: Clone L Fab (Fab, V domains shown)
VH: B5 VH with T30A, N31S, E32Y, G33D, S35I, Y54L, T55S, A56G, F59V, L106I
VL: B7 VL
notes: Fab format
B9: Clone T IgG (antibody, V domains shown)
VH: B4 VH with D52T, S57D
VL: B4 VL with N92S, S93Q
notes: IgG format
B10: Clone S IgG (antibody, V domains shown)
VH: B4 VH with D52T, S57D
VL: B4 VL with M4L, S31P
notes: IgG format

T10 sequence (O95390 299-407 limits assumed): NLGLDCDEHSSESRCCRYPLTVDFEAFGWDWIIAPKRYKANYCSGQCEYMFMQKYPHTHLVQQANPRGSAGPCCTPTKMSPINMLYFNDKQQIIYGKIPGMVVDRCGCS

In the first assay the target is T1, GDF15. Briefly: cell-based or functional assay.
In the case of B1, the “GDF15 - GFRAL RET pERK IC50 (pM)” value was determined as 254 pM and the “GDF15 - GFRAL-RET Luciferase IC50 (pM)” value came to 200 pM.
For B2, the “GDF15 GFRAL RET pERK Fab IC50 pM” value was determined as 24.6 pM.
The same measure, in the same setting: the figure for B3 is 1370 pM.
Take B4: the “GDF15 - GFRAL RET pERK IC50 (pM)” value was 30.3 pM and the “GDF15 - GFRAL-RET Luciferase IC50 (pM)” value came to 110 pM.
The matching figures for B5: 187 pM and 813 pM.
In the case of B6, the “GDF15 - GFRAL RET pERK IC50 (pM)” value amounted to 35.6 pM.
As for B7, the “GDF15 GFRAL RET pERK Fab IC50 pM” value worked out at 169 pM.
Same read-out and setting: under B8 stands 2.1 µM.

The target of the next assay is T2, Cyno GDF15 Fc. Briefly: Octet BLI, Fab monovalent. A general note: Biolayer interferometry detects binding as a change in optical thickness at a sensor tip.
For orientation: Kd means the free concentration of one partner at which half of the binding sites on the other are occupied at equilibrium, for simple one-to-one binding. A higher Kd goes with weaker binding. As to B2, the Kd came out at 1.42 nM.
Still for that read-out and setting: under B3 stands 1.91 nM; under B7, 2.4 nM; under B8, 1.56 nM.

Another assay addresses T3, Mouse GDF15 Fc. In words: Octet BLI, Fab monovalent.
Take B2: binding was put at a Kd of 50.9 nM.
Still for that read-out and setting: the figure for B3 is 31.4 nM; for B7 it is 333 nM.
The same measure, in the same setting: under B8 stands 229 nM.

A further assay deals with T4, GDNF. Briefly: Octet BLI, IgG on tip, avid.
Regarding B1, the binding result is listed as “no binding (tested: 100 nM)”.
In turn, B5 had a Kd of 333 nM.
For B9, the binding result is “no binding (tested: 100 nM)”.
Same read-out and setting: the entry for B10 is “no binding (tested: 100 nM)”.

Another assay has as its target GDF8 (UniProt O14793 267-375). In words: Octet BLI, IgG on tip, avid.
As to B1, the binding result is “no binding (tested: 100 nM)”.
On the same count and under the same terms, under B4 stands “no binding (tested: 100 nM)”.
The same measure, in the same setting: under B5 stands “no binding (tested: 100 nM)”; under B6, “no binding (tested: 100 nM)”.
Take B9: the binding result is “no binding (tested: 100 nM)”.
Still for that read-out and setting: the entry for B10 is “no binding (tested: 100 nM)”.

The target in a further assay is T5, GDF10. Briefly: Octet BLI, IgG on tip, avid.
In the case of B1, the binding result is recorded as “no binding (tested: 100 nM)”.
On the same count and under the same terms, the entry for B4 is “no binding (tested: 100 nM)”; for B5 it is “no binding (tested: 100 nM)”; for B6 it is “no binding (tested: 100 nM)”.
On the same count and under the same terms, under B9 stands “no binding (tested: 100 nM)”.
Same read-out and setting: the entry for B10 is “no binding (tested: 100 nM)”.

Another assay addresses T10, GDF11 (UniProt O95390 299-407).
T10 construct: Also the GDF-11 ligand of the ActRIIB/SMAD reporter assay
Briefly: Octet BLI, IgG on tip, avid.
Regarding B1, the binding result is recorded as “no binding (tested: 100 nM)”.
Same read-out and setting: the entry for B4 is “no binding (tested: 100 nM)”; for B5 it is “no binding (tested: 100 nM)”.
Same read-out and setting: under B6 stands “no binding (tested: 100 nM)”; under B9, “no binding (tested: 100 nM)”.
The same measure, in the same setting: under B10 stands “no binding (tested: 100 nM)”.

The target in another assay is T6, Human Activin A Fc. Briefly: Octet BLI, IgG on tip, avid.
As for B1, the binding result was “no binding (tested: 100 nM)”.
Turning to B4, the binding result is recorded as “no binding (tested: 100 nM)”.
On the same count and under the same terms, under B5 stands “no binding (tested: 100 nM)”.
Same read-out and setting: the entry for B6 is “no binding (tested: 100 nM)”; for B9 it is “no binding (tested: 100 nM)”; for B10 it is “no binding (tested: 100 nM)”.

For a further assay, the target named is T7, Human Activin B. In words: Octet BLI, IgG on tip, avid.
For the molecule B1, the binding result is given as “no binding (tested: 100 nM)”.
The same measure, in the same setting: the entry for B4 is “no binding (tested: 100 nM)”; for B5 it is “no binding (tested: 100 nM)”.
As to B6, the binding result is “no binding (tested: 100 nM)”.
Still for that read-out and setting: the entry for B9 is “no binding (tested: 100 nM)”; for B10 it is “no binding (tested: 100 nM)”.

A further assay addresses T8, Human BMP9. In words: Octet BLI, IgG on tip, avid.
B1: the binding result is “no binding (tested: 100 nM)”.
Still for that read-out and setting: the entry for B4 is “no binding (tested: 100 nM)”.
Same read-out and setting: the entry for B5 is “no binding (tested: 100 nM)”; for B6 it is “no binding (tested: 100 nM)”.
The same measure, in the same setting: the entry for B9 is “no binding (tested: 100 nM)”; for B10 it is “no binding (tested: 100 nM)”.

The target in another assay is T9, Human BMP10. In words: Octet BLI, IgG on tip, avid.
Turning to B1, the binding result was “no binding (tested: 100 nM)”.
Same read-out and setting: under B4 stands “no binding (tested: 100 nM)”; under B5, “no binding (tested: 100 nM)”; under B6, “no binding (tested: 100 nM)”.
The same measure, in the same setting: the entry for B9 is “no binding (tested: 100 nM)”; for B10 it is “no binding (tested: 100 nM)”.

The values above are taken from patent publication US20250019427A1 (BYOMASS, published 2025).
